Key:
Design in all cases: species or system human
Conditions in all cases: 1 µg/mL LG domain coated; 1 μg/mL GF; vs BSA-coated wells; n = 4
VEGF-A165 = assay: ELISA: VEGF-A165 binding to laminin LG domain / laminin peptide
Experimental: ELISA tests were performed as described above. In brief, […] recombinant protein, laminin alpha 4 LG domain recombinant protein (R&D Systems), laminin alpha 5 LG domain recombinant protein (LD BioPharma), or laminin peptide (sequences are described in Supplementary Table 1, chemically synthesized by Genscript) in PBS for 2 h at 37 °C. A concentration of 1 μg/mL of BSA served as non-binding protein control. After blocking with 2% BSA PBS-0.05% Tween 20 (PBS-T) solution, 1 μg/mL of the recombinant human proteins (VEGF-A121, VEGF-A165, PlGF-1, PlGF-2, PDGF-BB, or FGF-2) or 10 μg/mL of biotinylated heparin (Sigma-Aldrich) were added. Bound GF was detected with biotinylated antibodies for human VEGF-A, PlGF, PDGF-BB (R&D Systems, Catalog No. DY220, 1:180 dilution), or FGF-2 (R&D Systems). The antibodies were detected by streptavidin-HRP (R&D Systems).

VEGF-A121 = assay: ELISA: VEGF-A121 binding to laminin LG domain / laminin peptide
Experimental: (§1) ELISA tests were performed as described above. In brief, ELISA plates were coated with 1 μg/mL of laminin alpha 3 LG domain recombinant protein, laminin alpha 4 LG domain recombinant protein (R&D Systems), laminin alpha 5 LG domain recombinant protein (LD BioPharma), or laminin peptide (sequences are described in Supplementary Table 1, chemically synthesized by Genscript) in PBS for 2 h at 37 °C. A concentration of 1 μg/mL of BSA served as non-binding protein control. After blocking with 2% BSA PBS-0.05% Tween 20 (PBS-T) solution, 1 μg/mL of the recombinant human proteins (VEGF-A121, VEGF-A165, PlGF-1, PlGF-2, PDGF-BB, or FGF-2) or 10 μg/mL of biotinylated heparin (Sigma-Aldrich) were added. Bound GF was detected with biotinylated antibodies for human VEGF-A, PlGF, PDGF-BB (R&D Systems, Catalog No. DY220, 1:180 dilution), or FGF-2 (R&D Systems). The antibodies were detected by streptavidin-HRP (R&D Systems).

PlGF-2 = assay: ELISA: PlGF-2 binding to laminin LG domain / laminin peptide
Experimental: as §1

PlGF-1 = assay: ELISA: PlGF-1 binding to laminin LG domain / laminin peptide
Experimental: as §1

PDGF-BB = assay: ELISA: PDGF-BB binding to laminin LG domain / laminin peptide
Experimental: as §1

FGF-2 = assay: ELISA: FGF-2 binding to laminin LG domain / laminin peptide
Experimental: as §1

binding to VEGF-A165 (ELISA), recombinant LG domains (VEGF-A165): bound
binding to VEGF-A121 (ELISA), recombinant LG domains (VEGF-A121): did not show any binding
binding to PlGF-2 (ELISA), recombinant LG domains (PlGF-2): bound
binding to PlGF-1 (ELISA), recombinant LG domains (PlGF-1): did not show any binding
binding to PDGF-BB (ELISA), recombinant LG domains (PDGF-BB): bound
binding to FGF-2 (ELISA), recombinant LG domains (FGF-2): bound
B1: LAMA5_3026–3482: laminin alpha 5 LG domain recombinant protein (LD BioPharma) (protein)
chain: AIQVFLLGGSRKRVLVRVERATVYSVEQDNDLELADAYYLGGVPPDQLPPSLRRLFPTGGSVRGCVKGIKALGKYVDLKRLNTTGVSAGCTADLLVGRAMTFHGHGFLRLALSNVAPLTGNVYSGFGFHSAQDSALLYYRASPDGLCQVSLQQGRVSLQLLRTEVKTQAGFADGAPHYVAFYSNATGVWLYVDDQLQQMKPHRGPPPELQPQPEGPPRLLLGGLPESGTIYNFSGCISNVFVQRLLGPQRVFDLQQNLGSVNVSTGCAPALQAQTPGLGPRGLQATARKASRRSRQPARHPACMLPPHLRTTRDSYQFGGSLSSHLEFVGILARHRNWPSLSMHVLPRSSRGLLLFTARLRPGSPSLALFLSNGHFVAQMEGLGTRLRAQSRQRSRPGRWHKVSVRWEKNRILLVTDGARAWSQEGPHRQHQGAEHPQPHTLFVGGLPASSHSSKLP

— article PMC5986797, “Laminin heparin-binding peptides bind to several growth factors and enhance diabetic wound healing” (Nature Communications, 2018)
